In article PMC11672753 one finds stoichiometry N (Fab per spike trimer) data, which are given here for 1 substance.

This assay has as its target SARS-CoV-2 6P-mut7 spike protein (SARS-CoV-2) (UniProt P0DTC2). Put plainly: cryo-EM structure.

Substance COVA2-15 Fab showed a stoichiometry N (Fab per spike trimer) of 3.
